A value given as a limit tells only on which side of the number the result lay.

The target in this assay is Chicken skeletal muscle actin, assembled into filaments (F-actin) (chicken) (UniProt P68139). In words: TIRF microscopy of labeled protein on actin filaments; four-color TIRFM; 1.5 μM Mg-ATP actin (15% Alexa 488-labeled), 50 nM Fim1 (Alexa 405-labeled), 2.5 μM Cdc8 (TMR-labeled), without or with 500 nM Ain1 (Cy5-labeled); fluorescence on two-filament bundles; room temperature.

The substance “acetylation mimic tropomyosin AlaSer-Cdc8, fluorescently labeled (TMR or Cy5) (natural protein)” came in with a fold of Cdc8 on F-actin bundles with Fim1 and Ain1 against with Fim1 alone above 100 fold.
